# Assay results reported in patent US20240002888A1, “RECOMBINANT MICROORGANISM COMPRISING POLYNUCLEOTIDE ENCODING TARGET PRODUCT BINDING PROTEIN FUSED TO SECRETION SIGNAL SEQUENCE, COMPOSITION COMPRISING SAME, AND METHOD FOR PRODUCING TARGET PRODUCT BY USING SAME” (KOREA RESEARCH INSTITUTE OF CHEMICAL TECHNOLOGY, priority 2020, published 2024).
# B1: Suc2-tSPF: fusion protein of Suc2 signal peptide at N-terminus of tSPF (SEQ ID NO: 23), expressed in yeast from pSEC-Suc2-tSPF (protein)
# chain: MLLQAFLFLLAGFAAKISAMEFSGRVGDLSPRQKEALAKFRENVQDVLPALPNPDDYFLLRWLRARSFDLQKSEAMLRKHVEFRKQKDIDNIISWQPPEVIQQYLSGGMCGYDLDGCPVWYDIIGPLDAKGLLFSASKQDLLRTKMRECELLLQECAHQTTKLGRKVETITAIYDCEGLGLKHLWKPAVEAYGEALCMFEENYPETLKRLFVVKAPKLFPVAYNLIKPFLSEDTRKKIMVLGANWKEVLLKHISPDQVPVEYGGTMTDPDGNPKCKSKINYGGDIPRKYYVRDQVK
# modifications: Suc2-tSPF
# B2: MFα-tSPF: fusion protein of MFα signal peptide at N-terminus of tSPF (SEQ ID NO: 25), expressed in yeast from pSEC-MFα-tSPF (protein)
# chain: MRFPSIFTAVLFAASSALAAPVNTTTEDETAQIPAEAVIGYSDLEGDFDVAVLPFSNSTNNGLLFINTTIASIAAKEEGVSLEKREAEAMEFSGRVGDLSPRQKEALAKFRENVQDVLPALPNPDDYFLLRWLRARSFDLQKSEAMLRKHVEFRKQKDIDNIISWQPPEVIQQYLSGGMCGYDLDGCPVWYDIIGPLDAKGLLFSASKQDLLRTKMRECELLLQECAHQTTKLGRKVETITAIYDCEGLGLKHLWKPAVEAYGEALCMFEENYPETLKRLFVVKAPKLFPVAYNLIKPFLSEDTRKKIMVLGANWKEVLLKHISPDQVPVEYGGTMTDPDGNPKCKSKINYGGDIPRKYYVRDQVK
# modifications: MF-tSPF
# B3: tSPF: truncated supernatant protein factor, amino acids 1 to 275 of SPF (SEQ ID NO: 2), without secretion signal; control expressed from pSEC-tSPF (protein)
# chain: MSGRVGDLSPRQKEALAKFRENVQDVLPALPNPDDYFLLRWLRARSFDLQKSEAMLRKHVEFRKQKDIDNIISWQPPEVIQQYLSGGMCGYDLDGCPVWYDIIGPLDAKGLLFSASKQDLLRTKMRECELLLQECAHQTTKLGRKVETITIIYDCEGLGLKHLWKPAVEAYGEFLCMFEENYPETLKRLFVVKAPKLFPVAYNLIKPFLSEDTRKKIMVLGANWKEVLLKHISPDQVPVEYGGTMTDPDGNPKCKSKINYGGDIPRKYYVRDQVK
# modifications: truncated SPF
# B4: Pho5-tSPF: fusion protein of Pho5 signal peptide at N-terminus of tSPF (SEQ ID NO: 24), expressed in yeast from pSEC-Pho5-tSPF (protein)
# chain: MFKSVVYSILAASLANAMEFSGRVGDLSPRQKEALAKFRENVQDVLPALPNPDDYFLLRWLRARSFDLQKSEAMLRKHVEFRKQKDIDNIISWQPPEVIQQYLSGGMCGYDLDGCPVWYDIIGPLDAKGLLFSASKQDLLRTKMRECELLLQECAHQTTKLGRKVETITAIYDCEGLGLKHLWKPAVEAYGEALCMFEENYPETLKRLFVVKAPKLFPVAYNLIKPFLSEDTRKKIMVLGANWKEVLLKHISPDQVPVEYGGTMTDPDGNPKCKSKINYGGDIPRKYYVRDQVK
# modifications: Pho5-SPF
# Key:
# Format in all cases: cell-based, Saccharomyces cerevisiae
# [1] = test system: CEN.PK2-1D yeast cells; assay: Beta-carotene production and secretion by CEN.PK2-1D yeast cells co-transformed with p415-BC and pSEC-tSPF or pSEC-Suc2-tSPF; settings: for Intracellular (mg/L) / Intracellular (mg/g): beta-carotene in cells; for Extracellular: beta-carotene in dodecane layer
# From the text: Through the same process as described in Section (1.2) of Example 1, the S. cerevisiae wild strain CEN.PK2-1D was co-transformed with the p415-BC vector manufactured in Section (1.2) and either pSEC-tSPF or pSEC-Suc2-tSPF, to manufacture yeast cells transformed with a vector expressing tSPF fused to a signal peptide.
# CEN.PK2-1D yeast cells, which were co-transformed with the p415-BC vector obtained in Section (2.2) and either pSEC-tSPF or pSEC-Suc2-tSPF and were able to overproduce beta-carotene, were cultured for 144 hours under the same conditions as described in Section (1.3) of Example 1. Then, the amount of beta-carotene in the cultured cells and outside the cells was measured. The amount of beta-carotene was measured in the same method as the methods for cell lysis and dodecane layer separation used for the measurement of the squalene concentration. Table 2 and FIG. 6 show the amount of beta-carotene produced by culturing the CEN.PK2-1D yeast cells co-transformed with the p415-BC vector and either pSEC-tSPF or pSEC-Suc2-tSPF.
# [2] = test system: SQ strain; assay: Squalene production and secretion by SQ strains transformed with tSPF fused to a secretion signal sequence (HPLC of cell lysate and dodecane layer); settings: for Intracellular (mg/L) / Intracellular (mg/g): squalene in cells; for Extracellular: squalene in dodecane layer
# Method: The SQ strains transformed with the pSEC-Suc2-tSPF, pSEC-Pho5-tSPF, and pSEC-MFα-tSPF expression vectors were cultured in flask ([…]) containing 50 mL of minimal medium (e.g., YSC medium; 0.67% (w/v) yeast nitrogen base without amino acids (BD Difco, USA), 0.19% (w/v) yeast synthetic drop-out medium supplements without uracil (Sigma-Aldrich, USA)) while stirring at 250 rpm at 30° C.
# After culturing for 72 hours and 144 hours, the culture was centrifuged at 4,000 rpm to be separated into cells, a culture supernatant, and a dodecane layer. Then, the concentration of squalene in the separated cells and dodecane layer was measured. To measure the squalene concentration in the cells, the cells were resuspended in 600 μL of a mixed solution containing methanol and acetone at 1:1, transferred to a tube containing lysing matrix C (glass bead, MP Biomedicals, USA), and then underwent cell lysis by using a FastPrep-24 5G homogenizer (MP Biomedicals, USA). By centrifugation at 13,000 rpm, the lysed cells and intracellular metabolites including squalene dissolved from the lysed cells were separated.
# Next, the squalene concentration in the cell lysate was measured. To measure the squalene concentration in the cell lysate, the concentration was measured by using an Agilent HPLC system after filtering the cell lysate through a 0.2 μm syringe filter.
# In addition, the dodecane layer separated by centrifugation was also filtered in the same way, and then the squalene concentration was measured by using an HPLC system. […] FIGS. 2A and 2B show the squalene concentrations outside the cells or in the cells, wherein the cells were produced by yeast cells including the polynucleotide encoding tSPF fused to the secretion signal sequence.
# [3] = test system: SQ strain; assay: Western blot analysis of cell lysates and culture supernatant of transformed SQ strains (anti-His tag); settings: medium without dodecane layer
# Method: FIG. 4 is a diagram showing the results of western blot analysis of the cell lysates and the culture supernatant obtained after culturing the SQ strains that were each transformed with the Suc2-tSPF, Pho5-tSPF and MFα-tSPF fusion protein genes. To confirm the extracellular secretion of the tSPF fusion protein, yeast cells were cultured in a flask ([…]) containing 50 mL minimal medium (e.g., YSC medium; 0.67% (w/v) yeast nitrogen base without amino acids (BD Difco, USA), 0.19% (w/v) yeast synthetic drop-out medium supplements without uracil (Sigma-Aldrich, USA)) supplemented with 2% (w/v) glucose while stirring at 30° C. […] To extract intracellular proteins from the cultured yeast cells in an amount corresponding to an OD600 value of 100, the cells were resuspended 1 mL of cell lysis buffer (1 mL RIPA buffer, Thermo Scientific, MA, USA) containing protease inhibitor (1× protease inhibitor cocktail, Roche Diagnostics, Mannheim, Germany). The suspension was homogenized by using a sonicator, for 6 minutes at 20% amplitude and 3 second intervals. The extracellular proteins in the supernatant of the culture medium were added to a solution in which trichloroacetic acid solution was added to 50 mL of the supernatant to account for 25%, and incubated for 30 minutes to precipitate proteins, followed by centrifugation at 4° C. for 40 minutes. The precipitated proteins were washed three times with 1 ml of cold acetone, and then resuspended in 50 μl of sterile water. The resuspended proteins were further concentrated by using 30 kDa am icon ultra centrifugal filters.
# The protein samples thus prepared, i.e. the cell lysates, were mixed with 5×SDS sample buffer and separated by 10% SDS-PAGE. The proteins separated on the SDS-PAGE gel were transferred to a PVDF membrane, and blocked by incubation for one day in TBST containing 4% skim milk. The PVDF membrane was reacted with a solution containing primary antibodies at room temperature for 1 hour, and then washed with a TBST solution three times. As the primary antibody, an anti-actin antibody or an anti-His tag antibody was used. The fusion protein included a 6×His tag sequence at the C-terminus. The washed PVDF membrane was reacted again in a solution containing peroxidase-conjugated anti-IgG antibodies at room temperature for 1 hour. The PVDF membrane in which the antibody-conjugated proteins were present was visualized by using the ChemiDoc imaging system.
Molecule,amount of extracellular beta-carotene or ratio of extracellular secretion compared to control cells [1],"extracellular secretion of beta-carotene, increase compared to the control groups containing the empty vector ([1]; 144 hours)",Intracellular (mg/L) ([1]; 144 hours),Intracellular (mg/g) ([1]; 144 hours),Extracellular ([1]; 144 hours),amount of extracellular squalene or extracellular squalene secretion ratio compared to the control cells [2],Intracellular (mg/L) ([2]; 72 hours),Intracellular (mg/g) ([2]; 72 hours),Intracellular (mg/L) ([2]; 144 hours),Intracellular (mg/g) ([2]; 144 hours),Extracellular ([2]; 72 hours),Extracellular ([2]; 144 hours),western blot band in cell lysate [3],western blot band in culture supernatant ([3]; culture supernatant)
B1,significantly increased,about 23 fold,7.65 mg/L,0.82 mg/g,1.4 mg/L,significant increase,476.9 mg/L,89.61 mg/g,557.03 mg/L,97.93 mg/g,166.62 mg/L,226.51 mg/L,hardly appeared,–
B2,–,–,–,–,–,significant increase,210.52 mg/L,44.88 mg/g,551.64 mg/L,78.42 mg/g,4.21 mg/L,43.25 mg/L,–,–
B3,–,–,7.04 mg/L,0.69 mg/g,0.23 mg/L,–,401.51 mg/L,55.05 mg/g,485.04 mg/L,59.43 mg/g,3.67 mg/L,13.82 mg/L,apparent band,did not appear
B4,–,–,–,–,–,significant increase,252.17 mg/L,51.68 mg/g,426.85 mg/L,72.39 mg/g,64.55 mg/L,190.09 mg/L,hardly appeared,–
